{"source": "the supplement of paper PMC10567573", "parents": {"B1": {"name": "RSPH3 (parent)", "chain": "KAASLARNLAKRRRTYLGGAAGRS"}, "B2": {"name": "SLC22A15 (parent)", "chain": "IAQYALLGYFIRSWRTLAILVNLQ"}}, "data": [{"variants_of": "B1", "experiment": "protein stability index of a GFP-peptide fusion (GPS, HEK-293T) (PSI 1-6); higher = more stable", "conditions": "c terminus: a fixed tail appended", "values": [{"variant": "G18M", "protein stability index": 2.5}, {"variant": "G18L", "protein stability index": 2.32}, {"variant": "G18I", "protein stability index": 2.86}, {"variant": "G18V", "protein stability index": 2.36}, {"variant": "G18H", "protein stability index": 3.07}, {"variant": "G18E", "protein stability index": 2.45}, {"variant": "G18Y", "protein stability index": 3.11}, {"variant": "G18K", "protein stability index": 2.35}, {"variant": "G18A", "protein stability index": 2.25}, {"variant": "G18T", "protein stability index": 1.97}, {"variant": "G18S", "protein stability index": 1.69}, {"variant": "G18F", "protein stability index": 1.78}, {"variant": "A21W", "protein stability index": 1.7}, {"variant": "A21R", "protein stability index": 1.71}, {"variant": "A21E", "protein stability index": 3.14}, {"variant": "A21I", "protein stability index": 1.91}, {"variant": "A21K", "protein stability index": 3.2}, {"variant": "A21V", "protein stability index": 2.25}, {"variant": "A21D", "protein stability index": 2.69}, {"variant": "A21P", "protein stability index": 2.68}, {"variant": "T15H", "protein stability index": 2.09}, {"variant": "T15D", "protein stability index": 2.17}, {"variant": "T15V", "protein stability index": 1.91}, {"variant": "T15Y", "protein stability index": 1.29}, {"variant": "T15M", "protein stability index": 3.14}, {"variant": "T15F", "protein stability index": 2.31}, {"variant": "S24H", "protein stability index": 2.41}, {"variant": "S24D", "protein stability index": 3.31}, {"variant": "S24Q", "protein stability index": 3.37}, {"variant": "S24P", "protein stability index": 1.83}, {"variant": "S24I", "protein stability index": 3.4}, {"variant": "S24M", "protein stability index": 2.2}, {"variant": "S24E", "protein stability index": 2.01}, {"variant": "S24N", "protein stability index": 1.85}, {"variant": "S24F", "protein stability index": 1.94}, {"variant": "S24A", "protein stability index": 2.7}, {"variant": "S24K", "protein stability index": 2}, {"variant": "S24R", "protein stability index": 2.32}, {"variant": "S24C", "protein stability index": 2.11}, {"variant": "S24L", "protein stability index": 2.04}, {"variant": "G22D", "protein stability index": 2.03}, {"variant": "G22F", "protein stability index": 2.17}, {"variant": "G22W", "protein stability index": 1.44}, {"variant": "G22Y", "protein stability index": 2}, {"variant": "G22N", "protein stability index": 3.29}, {"variant": "G22L", "protein stability index": 2.42}, {"variant": "G22K", "protein stability index": 2.05}, {"variant": "G22H", "protein stability index": 1.44}, {"variant": "R23D", "protein stability index": 2.61}, {"variant": "R23H", "protein stability index": 2.37}, {"variant": "R23L", "protein stability index": 1.83}, {"variant": "R23F", "protein stability index": 1.63}, {"variant": "R23M", "protein stability index": 2}, {"variant": "R23G", "protein stability index": 1.85}, {"variant": "R23P", "protein stability index": 2.83}, {"variant": "R23K", "protein stability index": 2.14}, {"variant": "R23W", "protein stability index": 1.61}, {"variant": "R23I", "protein stability index": 1.59}, {"variant": "R23C", "protein stability index": 1.99}, {"variant": "R23Q", "protein stability index": 1.23}, {"variant": "R23V", "protein stability index": 2.15}, {"variant": "G19H", "protein stability index": 2.59}, {"variant": "G19R", "protein stability index": 2.93}, {"variant": "G19A", "protein stability index": 2.32}, {"variant": "G19E", "protein stability index": 2.13}, {"variant": "G19N", "protein stability index": 2.68}, {"variant": "G19P", "protein stability index": 1.46}, {"variant": "G19I", "protein stability index": 1.87}, {"variant": "G19S", "protein stability index": 3.14}, {"variant": "G19W", "protein stability index": 1.67}, {"variant": "G19C", "protein stability index": 1.97}, {"variant": "G19Q", "protein stability index": 3.22}, {"variant": "G19F", "protein stability index": 2.03}, {"variant": "G19T", "protein stability index": 2.38}, {"variant": "L17Y", "protein stability index": 3.3}, {"variant": "L17G", "protein stability index": 2.66}, {"variant": "L17K", "protein stability index": 4.17}, {"variant": "L17S", "protein stability index": 2.75}, {"variant": "L17F", "protein stability index": 2.05}, {"variant": "L17E", "protein stability index": 2.32}, {"variant": "L17M", "protein stability index": 2.64}, {"variant": "L17H", "protein stability index": 3.26}, {"variant": "L17N", "protein stability index": 3.18}, {"variant": "L17R", "protein stability index": 3.44}, {"variant": "L17W", "protein stability index": 1.69}, {"variant": "R14V", "protein stability index": 2.24}, {"variant": "Y16M", "protein stability index": 2.26}, {"variant": "Y16E", "protein stability index": 1.86}, {"variant": "Y16V", "protein stability index": 2.17}, {"variant": "Y16F", "protein stability index": 3.2}, {"variant": "Y16P", "protein stability index": 3.04}, {"variant": "Y16L", "protein stability index": 2.29}, {"variant": "Y16H", "protein stability index": 3.32}, {"variant": "Y16K", "protein stability index": 2.49}, {"variant": "Y16G", "protein stability index": 3.03}, {"variant": "Y16A", "protein stability index": 3.41}, {"variant": "Y16Q", "protein stability index": 2.81}, {"variant": "A20W", "protein stability index": 2.48}, {"variant": "A20E", "protein stability index": 2.45}, {"variant": "A20H", "protein stability index": 2.59}, {"variant": "A20D", "protein stability index": 3.98}, {"variant": "A20T", "protein stability index": 2.35}, {"variant": "A20G", "protein stability index": 3.39}, {"variant": "A20M", "protein stability index": 2.42}, {"variant": "A20R", "protein stability index": 2.98}, {"variant": "A20S", "protein stability index": 1.72}, {"variant": "A20V", "protein stability index": 2.6}]}, {"variants_of": "B2", "experiment": "protein stability index of a GFP-peptide fusion (GPS, HEK-293T) (PSI 1-6); higher = more stable", "conditions": "c terminus: a fixed tail appended", "values": [{"variant": "I11E", "protein stability index": 1.63}, {"variant": "I11Y", "protein stability index": 2.72}, {"variant": "I11C", "protein stability index": 2.6}, {"variant": "I11N", "protein stability index": 2.32}, {"variant": "I11V", "protein stability index": 2.88}, {"variant": "I11F", "protein stability index": 3.45}, {"variant": "I11Q", "protein stability index": 2.14}, {"variant": "I11T", "protein stability index": 3.02}, {"variant": "I11H", "protein stability index": 2.63}, {"variant": "I11P", "protein stability index": 2.1}, {"variant": "I11M", "protein stability index": 2.89}, {"variant": "I11L", "protein stability index": 2.34}, {"variant": "I11K", "protein stability index": 3.38}, {"variant": "I11S", "protein stability index": 2.68}, {"variant": "I11D", "protein stability index": 3.1}, {"variant": "I11R", "protein stability index": 2.37}, {"variant": "I11A", "protein stability index": 2.96}, {"variant": "R12N", "protein stability index": 2.27}, {"variant": "R12S", "protein stability index": 3.61}, {"variant": "R12M", "protein stability index": 2.98}, {"variant": "R12L", "protein stability index": 2.94}, {"variant": "R12P", "protein stability index": 2.67}, {"variant": "R12W", "protein stability index": 2.88}, {"variant": "R12C", "protein stability index": 2.67}, {"variant": "R12G", "protein stability index": 2.97}, {"variant": "R12F", "protein stability index": 3.61}, {"variant": "R12K", "protein stability index": 2.95}, {"variant": "R12H", "protein stability index": 2.5}, {"variant": "R12Y", "protein stability index": 3.46}, {"variant": "R12E", "protein stability index": 3.81}, {"variant": "R12V", "protein stability index": 2.34}, {"variant": "R12I", "protein stability index": 3.48}, {"variant": "R12Q", "protein stability index": 1.93}, {"variant": "R12D", "protein stability index": 1.86}, {"variant": "R12T", "protein stability index": 1.97}, {"variant": "Q3R", "protein stability index": 4.63}, {"variant": "Q3V", "protein stability index": 4.91}, {"variant": "Q3K", "protein stability index": 1.96}, {"variant": "Q3D", "protein stability index": 2.29}, {"variant": "Q3L", "protein stability index": 3.15}, {"variant": "Q3G", "protein stability index": 3.38}, {"variant": "Q3C", "protein stability index": 3.46}, {"variant": "Q3H", "protein stability index": 2.13}, {"variant": "Q3A", "protein stability index": 3.14}, {"variant": "R15M", "protein stability index": 2.18}, {"variant": "R15F", "protein stability index": 3.18}, {"variant": "R15S", "protein stability index": 2}, {"variant": "R15E", "protein stability index": 1.81}, {"variant": "R15W", "protein stability index": 3.4}, {"variant": "R15V", "protein stability index": 2.88}, {"variant": "R15H", "protein stability index": 2.65}, {"variant": "R15A", "protein stability index": 2.1}, {"variant": "R15C", "protein stability index": 2.86}, {"variant": "R15N", "protein stability index": 3.78}, {"variant": "R15D", "protein stability index": 4.08}, {"variant": "R15T", "protein stability index": 4.03}, {"variant": "R15K", "protein stability index": 3.15}, {"variant": "R15Q", "protein stability index": 2.52}, {"variant": "R15L", "protein stability index": 2.95}, {"variant": "R15G", "protein stability index": 4.28}]}]}
